Experimental data reported in paper doi:10.1101/2020.09.10.291369, “In vivo and in vitro mechanistic characterization of a clinically relevant PolγA mutation”.

Target: T1, POLγA A449T (UniProt P54099 26-1218, A450T)
T1 sequence: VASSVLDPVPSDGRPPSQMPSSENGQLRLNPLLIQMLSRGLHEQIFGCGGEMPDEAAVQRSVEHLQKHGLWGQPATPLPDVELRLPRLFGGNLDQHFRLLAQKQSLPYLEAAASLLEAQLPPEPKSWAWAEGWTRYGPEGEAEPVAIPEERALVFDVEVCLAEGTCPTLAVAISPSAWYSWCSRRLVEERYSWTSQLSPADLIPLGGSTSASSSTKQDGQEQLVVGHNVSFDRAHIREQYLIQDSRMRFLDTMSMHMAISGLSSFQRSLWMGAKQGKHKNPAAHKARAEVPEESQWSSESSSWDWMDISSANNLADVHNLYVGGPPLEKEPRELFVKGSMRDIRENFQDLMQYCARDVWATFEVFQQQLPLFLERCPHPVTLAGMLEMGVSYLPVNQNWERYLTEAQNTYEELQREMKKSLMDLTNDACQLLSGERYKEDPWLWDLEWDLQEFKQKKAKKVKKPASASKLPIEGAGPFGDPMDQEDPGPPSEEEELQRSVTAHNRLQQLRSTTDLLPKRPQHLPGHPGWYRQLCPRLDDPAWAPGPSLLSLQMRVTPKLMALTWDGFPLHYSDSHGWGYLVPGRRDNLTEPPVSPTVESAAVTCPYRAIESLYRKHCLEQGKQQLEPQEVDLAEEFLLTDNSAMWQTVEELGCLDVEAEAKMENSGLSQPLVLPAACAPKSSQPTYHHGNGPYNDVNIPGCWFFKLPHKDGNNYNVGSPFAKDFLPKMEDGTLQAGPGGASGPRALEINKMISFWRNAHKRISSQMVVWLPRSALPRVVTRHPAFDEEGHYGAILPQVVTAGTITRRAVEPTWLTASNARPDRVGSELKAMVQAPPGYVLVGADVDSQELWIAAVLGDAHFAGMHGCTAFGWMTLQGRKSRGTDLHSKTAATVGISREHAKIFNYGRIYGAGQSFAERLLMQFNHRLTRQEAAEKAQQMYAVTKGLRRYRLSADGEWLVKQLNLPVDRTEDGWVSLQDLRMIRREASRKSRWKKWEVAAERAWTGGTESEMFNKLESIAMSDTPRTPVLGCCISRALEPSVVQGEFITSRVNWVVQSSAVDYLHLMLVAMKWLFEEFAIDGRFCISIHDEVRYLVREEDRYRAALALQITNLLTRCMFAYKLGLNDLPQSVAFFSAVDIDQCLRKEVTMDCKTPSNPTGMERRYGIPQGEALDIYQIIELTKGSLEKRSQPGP
Experiment: EMSA; POLγA alone; 10 mM MgCl2, ddGTP, dCTP, ATP; Kd in Suppl. Fig. 5A, value not in material; EMSA: 10 fmol DNA in 15 µl, 20 mM Tris-HCl pH 7.8, 1 mM DTT, 0.1 mg/ml BSA, 10 mM MgCl2, 10% glycerol, 2 mM ATP, 0.3 mM ddGTP, 3 mM dCTP, RT 10 min; 6% native PAGE 0.5x TBE
Details: protein: recombinant; label: 5'-32P on strand 2 (21-mer); 5' overhang 15 nt on strand 1; 21 bp duplex; primer-template

B1: 36-nt/21-nt primed template (mixed)
DNA 1: TTTTTTTTTTATCCGGGCTCCTCTAGACTCGACCGC
DNA 2: GCGGTCGAGTCTAGAGGAGCC
Which binding signal does the source give for B1 here?
Its binding signal is about 3.4 fold weaker than WT.
